{"source": "patent US12428658B2", "about": "“Methods and compositions for enzymatic polymerization of N3′→P5′ phosphoramidate DNA” (The General Hospital Corporation, priority 2019, dated 2025)", "molecules": {"B1": {"name": "F710Y: B. stearothermophilus DNA polymerase I large fragment (BF) with single active site mutation F710Y in the O helix (protein, listed as Bacillus stearothermophilus)", "chain": "MKNKLVLIDGNSVAYRAFFALPLLHNDKGIHTNAVYGFTMMLNKILAEEQPTHILVAFDAGKTTFRHETFQDYKGGRQQTPPELSEQFPLLRELLKAYRIPAYELDHYEADDIIGTMAARAEREGFAVKVISGDRDLTQLASPQVTVEITKKGITDIESYTPETVVEKYGLTPEQIVDLKGLMGDKSDNIPGVPGIGEKTAVKLLKQFGTVENVLASIDEIKGEKLKENLRQYRDLALLSKQLAAICRDAPVELTLDDIVYKGEDREKVVALFQELGFQSFLDKMAVQTDEGEKPLAGMDFAIADSVTDEMLADKAALVVEVVGDNYHHAPIVGIALANERGRFFLRPETALADPKFLAWLGDETKKKTMFDSKRAAVALKWKGIELRGVVFDLLLAAYLLDPAQAAGDVAAVAKMHQYEAVRSDEAVYGKGAKRTVPDEPTLAEHLVRKAAAIWALEEPLMDELRRNEQDRLLTELEQPLAGILANMEFTGVKVDTKRLEQMGAELTEQLQAVERRIYELAGQEFNINSPKQLGTVLFDKLQLPVLKKTKTGYSTSADVLEKLAPHHEIVEHILHYRQLGKLQSTYIEGLLKVVHPVTGKVHTMFNQALTQTGRLSSVEPNLQNIPIRLEEGRKIRQAFVPSEPDWLIFAADYSQIELRVLAHIAEDDNLIEAFRRGLDIHTKTAMDIFHVSEEDVTANMRRQAKAVNYGIVYGISDYGLAQNLNITRKEAAEFIERYFASFPGVKQYMDNIVQEAKQKGYVTTLLHRRRYLPDITSRNFNVRSFAERTAMNTPIQGSAADIIKKAMIDLSVRLREERLQARLLLQVHDELILEAPKEEIERLCRLVPEVMEQAVTLRVPLKVDYHYGPTWYDAK"}}, "key": {"[1]": {"system": "3′-amino terminal DNA primer / mixed sequence template duplex", "assay": "Multiple-turnover NP-DNA synthesis by 3′-amino primer extension with all four nNTPs on a mixed sequence template", "format": "biochemical", "settings": "55° C., Ca2+", "method": "(§1) Primer extension assays. Except where indicated, all extension reactions were performed with 1 μM fluorescein-labeled primer, 1.5 μM template, and ˜1.1 μM purified His6-tagged protein at 55° C. in a reaction buffer composed of 40 mM Tris-HCl, pH 8.8, 1 mM DTT, and a divalent cation as specified, typically 10 mM CaCl2. Reaction mixtures were equilibrated at the indicated reaction temperature for 1 min and initiated by addition of substrate. Progress was monitored by sampling 1 μL from the reaction manually quenched into 24 μL of chilled 90% formamide, 10 mM EDTA. Quenched samples were denatured at 90° C. for 1 min and cooled to room temperature prior to separation by denaturing polyacrylamide gel electrophoresis on 20% TBE-urea gels. To maintain strand separation for long extension products, as in FIGS. 3F-31I, an unlabeled DNA oligonucleotide complementary to the template was added to the quenching buffer (˜2 μM) prior to denaturation. Typically, 3 or 4 μL of quenched sample was loaded per lane for gels of 0.75-mm thickness. Bands were visualized with a Typhoon laser scanning imager (GE Amersham) and quantified with the manufacturer's software. For acid digestion of extended products, a reaction sample was diluted with 2.5 volumes of 1% acetic acid, 10 mM EDTA in formamide and digested at 75° C. for 45 min prior to gel separation."}, "[2]": {"system": "3′-amino terminal DNA primer / DNA template duplex", "assay": "3′-amino primer extension assay (single nucleotide addition, pre-steady-state NP activity)", "format": "biochemical", "method": "as §1"}}, "note": "Read-outs that look alike come from different tables or passages of the source."}
{"molecule": "B1", "values": [{"measurement": "time to full length +28 nt NP-DNA product", "setting": "[1]", "value": "< 24", "unit": "h"}, {"measurement": "Selectivity dCTP/nCTP, ratio (kpol/Kd, app)dCTP/(kpol/Kd, app)nCTP", "setting": "[2]; 10 mM CaCl2, pre-steady-state", "value": 9}, {"measurement": "Kd", "setting": "[2]; 3′-amino primer extension, 10 mM CaCl2, pre-steady-state, read-out: Kd, app dCTP", "value": 1100, "unit": "nM"}, {"measurement": "Kd", "setting": "[2]; 3′-amino primer extension, 10 mM CaCl2, pre-steady-state, read-out: Kd, app nCTP", "value": 3600, "unit": "nM"}, {"measurement": "kpol dCTP", "setting": "[2]; 3′-amino primer extension, varying dCTP, 10 mM CaCl2, pre-steady-state, 55° C., pH 8.8", "value": 0.191, "unit": "min⁻¹"}, {"measurement": "kpol nCTP", "setting": "[2]; 3′-amino primer extension, varying nCTP, 10 mM CaCl2, pre-steady-state, 55° C., pH 8.8", "value": 0.069, "unit": "min⁻¹"}, {"measurement": "increase in kpol for dCTP vs. wild-type", "setting": "[2]; Ca2+ cofactor", "value": 2.6, "unit": "fold"}, {"measurement": "increase in kpol for nCTP (NP activity) vs. wild-type", "setting": "[2]; Ca2+ cofactor", "value": 21, "unit": "fold"}, {"measurement": "transient kpol/Kd for NP-DNA synthesis with Ca2+", "setting": "[2]; nCTP, Ca2+, from Table 4", "value": 320, "unit": "M⁻¹ s⁻¹"}, {"measurement": "maximum reaction velocity / NP activity, Ca2+ vs. Mg2+", "setting": "[2]; saturating Ca2+ vs. Mg2+, faster with Ca2+", "value": 5, "unit": "fold"}, {"measurement": "apparent binding affinity for nCTP vs. dCTP, effect of the mutation", "setting": "[2]; with Ca2+", "value": "unaffected"}, {"measurement": "kinetic disadvantage of NP-DNA polymerase activity relative to native phosphodiester bond forming activity", "setting": "[2]; with F710Y", "value": "approximately four orders-of-magnitude"}]}
